Measurements published in FireProtDB (doi:10.1529/biophysj.106.101162).
Several values for one entry are separate records, joined by “and”; a condition that tells them apart may be missing. Identical values can stand only once.

Settings: Thermus thermophilus, 20 °C, GdnHCl, CD, Sodium acetate 50 mM, reversible: Yes, whole UniProt chain shown

B1: Cytochrome c oxidase subunit 2 wild type, P98052 (protein)
chain: AYTLATHTAGVIPAGKLERVDPTTVRQEGPWADPAQAVVQTGPNQYTVYVLAFAFGYQPNPIEVPQGAEIVFKITSPDVIHGFHVEGTNINVEVLPGEVSTVRYTFKRPGEYRIICNQYCGLGHQNMFGTIVVKE
- unfolding free energy (pH 3.5): 2.85 kcal/mol and 2.2 kcal/mol
- unfolding free energy (pH 4): 3.15 kcal/mol and 2.61 kcal/mol
- unfolding free energy (pH 4.5): 3.56 kcal/mol and 2.84 kcal/mol and 2.73 kcal/mol
- unfolding free energy (pH 5): 6.38 kcal/mol and 6.69 kcal/mol and 4.15 kcal/mol
- unfolding free energy (pH 5.5): 9.01 kcal/mol
- unfolding free energy (pH 6): 15.9 kcal/mol and 13.2 kcal/mol and 5.97 kcal/mol
- unfolding free energy (pH 7): 20.2 kcal/mol and 15.4 kcal/mol
